The record followed here is patent US20250236657A1 (TOSOH, published 2025).

B1: AVR10s_A330C (receptor)
chain: MGSAGESDQITLPKNEVQLNCYVLQEPPKGETSTYDWQLITHPRDYSGEMEGEHSQILKLSNLTPGLYEFKAVVEGQNAHSEGYVNVTVEPEPRKNRPPIAIVSPQFQEISLPTTSTVIDGSQSTDDDKIVQYHWEELKGPLREEKISEDTAILKLSKLVPGNYTFRLTVVDSDGATDSTTANLTVNKAVDHHHHHH
B2: AVR10s_I349N (receptor)
chain: MGSAGESDQITLPKNEVQLNAYVLQEPPKGETSTYDWQLNTHPRDYSGEMEGEHSQILKLSNLTPGLYEFKAVVEGQNAHSEGYVNVTVEPEPRKNRPPIAIVSPQFQEISLPTTSTVIDGSQSTDDDKIVQYHWEELKGPLREEKISEDTAILKLSKLVPGNYTFRLTVVDSDGATDSTTANLTVNKAVDHHHHHH
B3: AVR10s_V332Y (receptor)
chain: MGSAGESDQITLPKNEVQLNAYYLQEPPKGETSTYDWQLITHPRDYSGEMEGEHSQILKLSNLTPGLYEFKAVVEGQNAHSEGYVNVTVEPEPRKNRPPIAIVSPQFQEISLPTTSTVIDGSQSTDDDKIVQYHWEELKGPLREEKISEDTAILKLSKLVPGNYTFRLTVVDSDGATDSTTANLTVNKAVDHHHHHH
B4: AVR10s_A330V (receptor)
chain: MGSAGESDQITLPKNEVQLNVYVLQEPPKGETSTYDWQLITHPRDYSGEMEGEHSQILKLSNLTPGLYEFKAVVEGQNAHSEGYVNVTVEPEPRKNRPPIAIVSPQFQEISLPTTSTVIDGSQSTDDDKIVQYHWEELKGPLREEKISEDTAILKLSKLVPGNYTFRLTVVDSDGATDSTTANLTVNKAVDHHHHHH
B5: AVR10s_A330L (receptor)
chain: MGSAGESDQITLPKNEVQLNLYVLQEPPKGETSTYDWQLITHPRDYSGEMEGEHSQILKLSNLTPGLYEFKAVVEGQNAHSEGYVNVTVEPEPRKNRPPIAIVSPQFQEISLPTTSTVIDGSQSTDDDKIVQYHWEELKGPLREEKISEDTAILKLSKLVPGNYTFRLTVVDSDGATDSTTANLTVNKAVDHHHHHH
B6: AVR10s_Q347S (receptor)
chain: MGSAGESDQITLPKNEVQLNAYVLQEPPKGETSTYDWSLITHPRDYSGEMEGEHSQILKLSNLTPGLYEFKAVVEGQNAHSEGYVNVTVEPEPRKNRPPIAIVSPQFQEISLPTTSTVIDGSQSTDDDKIVQYHWEELKGPLREEKISEDTAILKLSKLVPGNYTFRLTVVDSDGATDSTTANLTVNKAVDHHHHHH
B7: AVR10s_L333C (receptor)
chain: MGSAGESDQITLPKNEVQLNAYVCQEPPKGETSTYDWQLITHPRDYSGEMEGEHSQILKLSNLTPGLYEFKAVVEGQNAHSEGYVNVTVEPEPRKNRPPIAIVSPQFQEISLPTTSTVIDGSQSTDDDKIVQYHWEELKGPLREEKISEDTAILKLSKLVPGNYTFRLTVVDSDGATDSTTANLTVNKAVDHHHHHH
B8: AVR10s_A330W (receptor)
chain: MGSAGESDQITLPKNEVQLNWYVLQEPPKGETSTYDWQLITHPRDYSGEMEGEHSQILKLSNLTPGLYEFKAVVEGQNAHSEGYVNVTVEPEPRKNRPPIAIVSPQFQEISLPTTSTVIDGSQSTDDDKIVQYHWEELKGPLREEKISEDTAILKLSKLVPGNYTFRLTVVDSDGATDSTTANLTVNKAVDHHHHHH
B9: AVR10s_V332W (receptor)
chain: MGSAGESDQITLPKNEVQLNAYWLQEPPKGETSTYDWQLITHPRDYSGEMEGEHSQILKLSNLTPGLYEFKAVVEGQNAHSEGYVNVTVEPEPRKNRPPIAIVSPQFQEISLPTTSTVIDGSQSTDDDKIVQYHWEELKGPLREEKISEDTAILKLSKLVPGNYTFRLTVVDSDGATDSTTANLTVNKAVDHHHHHH
B10: AVR10s_L348C (receptor)
chain: MGSAGESDQITLPKNEVQLNAYVLQEPPKGETSTYDWQCITHPRDYSGEMEGEHSQILKLSNLTPGLYEFKAVVEGQNAHSEGYVNVTVEPEPRKNRPPIAIVSPQFQEISLPTTSTVIDGSQSTDDDKIVQYHWEELKGPLREEKISEDTAILKLSKLVPGNYTFRLTVVDSDGATDSTTANLTVNKAVDHHHHHH
B11: AVR10s_A330Y (receptor)
chain: MGSAGESDQITLPKNEVQLNYYVLQEPPKGETSTYDWQLITHPRDYSGEMEGEHSQILKLSNLTPGLYEFKAVVEGQNAHSEGYVNVTVEPEPRKNRPPIAIVSPQFQEISLPTTSTVIDGSQSTDDDKIVQYHWEELKGPLREEKISEDTAILKLSKLVPGNYTFRLTVVDSDGATDSTTANLTVNKAVDHHHHHH
B12: AVR10s_A330F (receptor)
chain: MGSAGESDQITLPKNEVQLNFYVLQEPPKGETSTYDWQLITHPRDYSGEMEGEHSQILKLSNLTPGLYEFKAVVEGQNAHSEGYVNVTVEPEPRKNRPPIAIVSPQFQEISLPTTSTVIDGSQSTDDDKIVQYHWEELKGPLREEKISEDTAILKLSKLVPGNYTFRLTVVDSDGATDSTTANLTVNKAVDHHHHHH
B13: AVR10s_A330R (receptor)
chain: MGSAGESDQITLPKNEVQLNRYVLQEPPKGETSTYDWQLITHPRDYSGEMEGEHSQILKLSNLTPGLYEFKAVVEGQNAHSEGYVNVTVEPEPRKNRPPIAIVSPQFQEISLPTTSTVIDGSQSTDDDKIVQYHWEELKGPLREEKISEDTAILKLSKLVPGNYTFRLTVVDSDGATDSTTANLTVNKAVDHHHHHH
B14: AVR10s_Y331C (receptor)
chain: MGSAGESDQITLPKNEVQLNACVLQEPPKGETSTYDWQLITHPRDYSGEMEGEHSQILKLSNLTPGLYEFKAVVEGQNAHSEGYVNVTVEPEPRKNRPPIAIVSPQFQEISLPTTSTVIDGSQSTDDDKIVQYHWEELKGPLREEKISEDTAILKLSKLVPGNYTFRLTVVDSDGATDSTTANLTVNKAVDHHHHHH
B15: AAV-binding protein AVR10s (polypeptide of SEQ ID NO: 4, with polyhistidine tag) (receptor)
chain: MGSAGESDQITLPKNEVQLNAYVLQEPPKGETSTYDWQLITHPRDYSGEMEGEHSQILKLSNLTPGLYEFKAVVEGQNAHSEGYVNVTVEPEPRKNRPPIAIVSPQFQEISLPTTSTVIDGSQSTDDDKIVQYHWEELKGPLREEKISEDTAILKLSKLVPGNYTFRLTVVDSDGATDSTTANLTVNKAVDHHHHHH
B16: AAV-binding protein AVR21 with cysteine tag (SEQ ID NO: 102), immobilised as AVR21 immobilization gel (receptor)
chain: MGSAGESDQITLPKHEAQLNVYVLLVPPKGEASTYDWQLITHPRDYSGEMEGEHSQILKLSNLTPGLYEYRAVVEGQNAHSEGYVNVTVEPEPRKNRPPIAIVSPQFQEISLPTTSTVIDGSQSTDDDKIVQYHWEELKGPLREEKISEDTAILKLSQLVPGNYTFRLTVVDTDGATDSTTADLTVNKAVDHHHHHHCRNDTCG
modifications: immobilised on a TOYOPEARL carrier with iodoacetamide groups; cysteine tag sequence serving as immobilization tag at positions 220-226
notes: KIAA0319L PKD1 and PKD2 with 21 substitutions; also called AVR21 column

The first assay addresses AAV vector (AAV5-EGFP), adeno-associated virus serotype 5 (adeno-associated virus serotype 5 (AAV5)). As to the kind of experiment: ELISA, AAV5-EGFP coated, culture supernatant, anti-6His, A450. In general terms: ELISA stands for enzyme-linked immunosorbent assay.
As to B1, the Binding activity for AAV5 (vs AVR10s) (ratio (AVR10s = 1)) amounted to 1.94.
On the same count and under the same terms, next, B2: 1.13; B3: 1.5.
The same measure, in the same setting: the figure for B4 is 1.83; for B5 it is 1.53; for B6 it is 1.73.
The same measure, in the same setting: next, B7: 1.51.
Turning to B8, the Binding activity for AAV5 (vs AVR10s) (ratio (AVR10s = 1)) turned out to be 1.46.
As to B9, the Binding activity for AAV5 (vs AVR10s) (ratio (AVR10s = 1)) was 3.87.
For B10, the Binding activity for AAV5 (vs AVR10s) (ratio (AVR10s = 1)) came to 1.19.
Turning to B11, the Binding activity for AAV5 (vs AVR10s) (ratio (AVR10s = 1)) worked out at 2.19.
Regarding B12, the Binding activity for AAV5 (vs AVR10s) (ratio (AVR10s = 1)) was 1.68.
Still for that read-out and setting: the figure for B13 is 1.5; for B14 it is 1.3.

The target is the same in the next assay. Put plainly: ELISA, AAV5-EGFP coated, culture supernatant, anti-6His, A450; the reference itself.
In the case of B15, the Binding activity for AAV5 (vs AVR10s) (ratio (AVR10s = 1)) is 1.

For a further assay, the target named is T1, AAV2 G383A (adeno-associated virus serotype 2 (AAV2), UniProt P03135 1-735).
T1 construct: Recombinant AAV2 vector particles in filtered cell lysate
As to the kind of experiment: affinity HPLC on AVR21 column, pH gradient 6.0 to 2.0; no elution peak, not adsorbed and passed through.
Take B16: the binding result is “no binding”.

The next assay has as its target T2, AAV2 H271F (adeno-associated virus serotype 2 (AAV2), UniProt P03135 1-735).
T2 construct: Recombinant AAV2 vector particles in filtered cell lysate
Described as above.
For B16, the binding result is “no binding”.

Another assay deals with T3, AAV2 D529A (adeno-associated virus serotype 2 (AAV2), UniProt P03135 1-735).
T3 construct: Recombinant AAV2 vector particles in filtered cell lysate
The assay is described as above.
As to B16, the binding result is recorded as “no binding”.
